Target: HIV-1 BG505.DS.SOSIP.S613A Env trimer (HIV-1 (strain BG505))
Experiment: BLI; Trimer-Fab method, Octet RED384, 25 °C, 1% BSA in PBS: trimer (100 nM) held by RM19R-human Fc IgG on anti-human Fc capture tips; Fab as analyte in serial dilutions; global fit to a 1:1 Langmuir model

B1: Fab of mAb 15-3 (Fab, V domains shown)
VH: QVQLQESGPGVVKPSETLSLSCGVSSASILGGYFFWSWIRQSPGKGLEWMGGVYTNSDTTNYNPSLKSRVAISKDTSVNQFSLRLTSVTAADTAVYYCTARATVHSSASYYYGGRIDVWGPGLLVTVSS
VL: DIQMTQSPSSLSASLGDRVTVTCRASQGINRDLSWFQQKPGKAPTLLIYEVSNLQTGVSSRFSGSGSGTDFTLTISSLQPEDVATYYCQQDYDFPLTFGGGTKVDLK
  Kd: 0.104 nM
  koff: 7.98e-06 s⁻¹
  kon: 76500 M⁻¹ s⁻¹

B2: Fab of mAb 7-2 (Fab, V domains shown)
VH: QVQLQASGPGVVKPSETLSLTCAVSGDYVRRGYFYWSWVRQSPGKGLEWIGGIYSNSDTTNYNPSLKSRLTISKDTSNNQFFLTLSSVTAADTAVYYCTSRAKIYSSGSYYAGGRIDVWGPGVQVIVSS
VL: DVHMTQSPSSLSASLGDSVTVTCRASQGINKDLSWFQQKPGEAPTLLIYDASTLQTGVSSRFSGSGSGTDFTLTISNLQPEDVATYYCQQDYDFPLTFGGGTKVDLK
  Kd: 0.774 nM
  koff: 0.000109 s⁻¹
  kon: 141000 M⁻¹ s⁻¹

B3: Fab of mAb 6-6 (Fab, V domains shown)
VH: QVQLQVSGPGVVKPSETLSLTCSVSGDSFRRAYFFWSWVRQPPGKGLEWMGGIYTNSESTTYNPSLESRISVSKDASKNQFSLRLTSVTAADTAVYYCTSRAEVYFSGGYYSGGRIDVWGPGVLVTVSS
VL: DIQMTQSPSSLSASVGDRVTVTCRASQDINKDLSWFQQKPGEAPTLLIFTASTLQTGVSSRFSGSGSGTSFSLTISSLQPEDVATYFCQQDHSFPLTFGGGTRVDLQ
  Kd: 17 nM
  koff: 0.00304 s⁻¹
  kon: 179000 M⁻¹ s⁻¹
